This note sets out measurements from publication PMC3706390.

For one data set, the target named is L30 K36A (rat, UniProt P62890 1-115, K36A). The data set is described as follows: EMSA; reduced by 60%; 30 mM Tris-HCl pH 8.0, 75 mM KCl, 5 mM MgCl2, 1 mM DTT, 0.04 ug/uL BSA, 10% glycerol, 50 ng/uL yeast tRNA, 30 C 15 min; EMSA gels 0.5X TBE at 4 C; RNase digesti. A general note: A gel shift assay detects complexes by their altered migration in electrophoresis.

Another data set concerns the target L30 Y89A (rat, UniProt P62890 1-115, Y89A). The experiment in a line: EMSA; L30 at 50% WT binding; 30 mM Tris-HCl pH 8.0, 75 mM KCl, 5 mM MgCl2, 1 mM DTT, 0.04 ug/uL BSA, 10% glycerol, 50 ng/uL yeast tRNA, 30 C 15 min; EMSA gels 0.5X TBE at 4 C; RNase digesti.
Another data set concerns the target L30 L35A (rat, UniProt P62890 1-115, L35A). The data set is described as follows: EMSA; reduced by 14%, significant; 30 mM Tris-HCl pH 8.0, 75 mM KCl, 5 mM MgCl2, 1 mM DTT, 0.04 ug/uL BSA, 10% glycerol, 50 ng/uL yeast tRNA, 30 C 15 min; EMSA gels 0.5X TBE at 4 C; RNase digesti.
For the next data set, the target named is L30 K87A (rat, UniProt P62890 1-115, K87A). The data set is described as follows: EMSA; little effect vs WT; 30 mM Tris-HCl pH 8.0, 75 mM KCl, 5 mM MgCl2, 1 mM DTT, 0.04 ug/uL BSA, 10% glycerol, 50 ng/uL yeast tRNA, 30 C 15 min; EMSA gels 0.5X TBE at 4 C; RNase digesti.
The target in another data set is L30 V91A (rat, UniProt P62890 1-115, V91A). The experiment in a line: EMSA; comparable to WT; 30 mM Tris-HCl pH 8.0, 75 mM KCl, 5 mM MgCl2, 1 mM DTT, 0.04 ug/uL BSA, 10% glycerol, 50 ng/uL yeast tRNA, 30 C 15 min; EMSA gels 0.5X TBE at 4 C; RNase digesti.
A further data set addresses L30 M108A (rat, UniProt P62890 1-115, M108A). Described as above.
The target of the next data set is L30 E110A (rat, UniProt P62890 1-115, E110A). Described as above.
The next data set addresses L30 L29A (rat, UniProt P62890 1-115, L29A). Described as above.

B1: L30 RNA (stem-loop of L30 pre-mRNA) (structured_RNA)
RNA: GGGACCGGAGUGUCGCAAGACGCAGAGAUGGUCC
In the case of B1, the binding signal was 40 % of WT binding with L30 K36A, 37 % of WT binding with L30 Y89A and 86 % of WT binding with L30 L35A. Moreover, the binding result with L30 K87A, with L30 V91A, with L30 M108A, in the data set with L30 E110A and with L30 L29A was “binds” throughout.
